# Test results: paper PMC7265302
# Target: MavC, wild type (Legionella pneumophila) (UniProt Q5ZTL4)
# Assay: ITC
substance,measurement,value
"Lpg2149, wild type (from UniProt Q5ZTL2 1-119) (natural protein)",Kd,0.57 nM
